# Results reported in PMC10491584, “Structural convergence endows nuclear transport receptor Kap114p with a transcriptional repressor function toward TATA-binding protein” (Nature Communications, 2023).
# B1: yTBP^C wild type (core domain of yeast TATA-box binding protein, a.a. 61-240) (domain or fragment, S. cerevisiae, UniProt P13393 61-240, looked up)
# chain: SGIVPTLQNIVATVTLGCRLDLKTVALHARNAEYNPKRFAAVIMRIREPKTTALIFASGKMVVTGAKSEDDSKLASRKYARIIQKIGFAAKFTDFKIQNIVGSCDVKFPIRLEGLAFSHGTFSSYEPELFPGLIYRMVKPKIVLLIFVSGKIVLTGAKQREEIYQAFEAIYPVLSEFRKM
# notes: modified pET28a, 6xHis tag followed by a PreScission site; also called yTBPC WT; His-yTBP (61-240); source: E. coli Rosetta, purified (Ni-NTA, HiTrap SP, Superdex 75); not shown: His6, N-terminal, cleaved
# How the values were obtained:
# Kap114p (Q597A) = target: T1, Kap114p (Q597A) (S. cerevisiae, UniProt P53067 1-1004, Q597A); assay: ITC; MicroCal iTC200, 25 °C, 20 mM HEPES pH 7.4, 150 mM NaCl; high concentration: 50 µM wild type or mutant Kap114p in the sample cell, 500 µM wild type or mutant yTBPC in the syringe; triplicate; conditions: both partners purified
# T1 construct: Kap114p, S. cerevisiae, full length with Q597A; also called GST-Kap114p (Q597); source: E. coli Rosetta, purified (GST resin, MonoQ, Superdex 200)
# T1 sequence (looked up): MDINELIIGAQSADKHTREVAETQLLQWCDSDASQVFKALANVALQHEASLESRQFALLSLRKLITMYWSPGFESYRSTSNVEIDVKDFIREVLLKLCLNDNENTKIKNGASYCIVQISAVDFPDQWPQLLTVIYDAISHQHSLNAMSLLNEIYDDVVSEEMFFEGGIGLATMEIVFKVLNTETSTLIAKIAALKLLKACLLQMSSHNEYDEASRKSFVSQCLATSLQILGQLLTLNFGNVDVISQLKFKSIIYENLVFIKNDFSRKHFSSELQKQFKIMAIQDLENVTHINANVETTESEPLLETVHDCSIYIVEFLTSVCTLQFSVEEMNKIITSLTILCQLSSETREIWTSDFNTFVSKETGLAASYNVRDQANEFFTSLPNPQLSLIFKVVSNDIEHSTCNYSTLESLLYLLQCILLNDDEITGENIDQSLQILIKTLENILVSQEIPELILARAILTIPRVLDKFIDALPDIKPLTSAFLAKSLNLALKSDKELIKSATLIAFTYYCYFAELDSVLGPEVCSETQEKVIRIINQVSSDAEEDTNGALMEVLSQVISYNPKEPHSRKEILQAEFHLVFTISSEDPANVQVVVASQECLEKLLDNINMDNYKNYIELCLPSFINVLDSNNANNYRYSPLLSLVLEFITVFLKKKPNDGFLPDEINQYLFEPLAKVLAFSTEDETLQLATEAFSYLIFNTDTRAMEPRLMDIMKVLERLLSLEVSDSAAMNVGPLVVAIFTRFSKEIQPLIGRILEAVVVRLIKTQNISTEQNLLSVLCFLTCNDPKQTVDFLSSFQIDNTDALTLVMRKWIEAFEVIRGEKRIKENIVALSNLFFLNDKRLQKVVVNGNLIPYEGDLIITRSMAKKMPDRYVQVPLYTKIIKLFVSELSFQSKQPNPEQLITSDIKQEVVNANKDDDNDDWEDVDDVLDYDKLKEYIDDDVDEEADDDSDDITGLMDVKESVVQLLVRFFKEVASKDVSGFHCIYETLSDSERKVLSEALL
# Kap114pΔ(848-875) = target: T2, Kap114pΔ(848-875) (S. cerevisiae, UniProt P53067 1-1004, Δ848-875); assay: as above; conditions: both partners purified
# T2 construct: this construct is not in the list of mutants of the cloning methods; also called Δ(a.a.848-875); GST-Kap114p (Δ848-875); source: E. coli Rosetta, purified (GST resin, MonoQ, Superdex 200)
# T2 sequence (looked up): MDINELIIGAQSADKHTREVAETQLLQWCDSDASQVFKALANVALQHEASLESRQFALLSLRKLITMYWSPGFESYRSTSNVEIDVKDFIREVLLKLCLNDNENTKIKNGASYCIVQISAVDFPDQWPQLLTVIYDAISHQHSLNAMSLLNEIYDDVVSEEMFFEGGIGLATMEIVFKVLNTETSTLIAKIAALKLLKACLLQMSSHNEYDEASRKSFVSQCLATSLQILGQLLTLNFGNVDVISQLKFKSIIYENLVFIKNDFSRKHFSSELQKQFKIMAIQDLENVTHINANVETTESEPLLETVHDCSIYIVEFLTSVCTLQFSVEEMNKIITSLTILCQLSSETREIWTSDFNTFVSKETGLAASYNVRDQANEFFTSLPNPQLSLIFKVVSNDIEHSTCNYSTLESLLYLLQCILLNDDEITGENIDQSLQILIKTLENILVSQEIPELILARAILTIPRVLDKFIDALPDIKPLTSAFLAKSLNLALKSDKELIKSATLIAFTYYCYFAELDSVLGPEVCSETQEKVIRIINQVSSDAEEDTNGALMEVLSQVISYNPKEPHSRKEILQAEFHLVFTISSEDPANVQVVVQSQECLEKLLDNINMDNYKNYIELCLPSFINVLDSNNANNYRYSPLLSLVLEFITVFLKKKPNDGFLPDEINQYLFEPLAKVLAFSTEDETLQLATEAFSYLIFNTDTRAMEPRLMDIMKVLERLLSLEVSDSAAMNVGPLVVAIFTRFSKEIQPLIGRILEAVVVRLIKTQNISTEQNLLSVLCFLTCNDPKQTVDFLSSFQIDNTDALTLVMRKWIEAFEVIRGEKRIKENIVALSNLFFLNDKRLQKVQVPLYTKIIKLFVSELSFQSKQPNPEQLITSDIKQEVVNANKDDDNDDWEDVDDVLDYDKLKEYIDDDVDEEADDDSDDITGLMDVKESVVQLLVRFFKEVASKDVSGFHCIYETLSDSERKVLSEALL
binder,measurement,setting,value
B1,Kd,Kap114p (Q597A),7.4 nM
same,Kd,Kap114pΔ(848-875),1.7 nM
